± gives the standard deviation of the averaged measurements.
Experiment: total protein half-life in vivo (active degradation + dilution); higher = more stable protein
[1] = E. coli NCM3722 delta-clpP delta-lon delta-hslV, growth: N-lim chemostat, doubling time 6 h
[2] = E. coli NCM3722 delta-clpP, growth: N-lim chemostat, doubling time 6 h
[3] = E. coli NCM3722 delta-hslV, growth: N-lim chemostat, doubling time 6 h
[4] = wild type E. coli NCM3722, growth: C-lim chemostat, doubling time 6 h
[5] = wild type E. coli NCM3722, growth: C-lim chemostat, doubling time 12 h
[6] = wild type E. coli NCM3722, growth: N-lim chemostat, doubling time 6 h
[7] = wild type E. coli NCM3722, growth: P-lim chemostat, doubling time 6 h
[8] = wild type E. coli NCM3722, growth: P-lim chemostat, doubling time 12 h
[9] = E. coli NCM3722 delta-lon, growth: N-lim chemostat, doubling time 6 h
[10] = E. coli NCM3722 delta-smpB, growth: N-lim chemostat, doubling time 6 h
[11] = wild type E. coli NCM3722, growth: C-lim chemostat, doubling time 3 h
[12] = wild type E. coli NCM3722, growth: N-lim chemostat, doubling time 12 h

Sequence | total protein half-life in vivo [1] [h] | total protein half-life in vivo [2] [h] | total protein half-life in vivo [3] [h] | total protein half-life in vivo [4] [h] | total protein half-life in vivo [5] [h] | total protein half-life in vivo [6] [h] | total protein half-life in vivo [7] [h] | total protein half-life in vivo [8] [h] | total protein half-life in vivo [9] [h] | total protein half-life in vivo [10] [h] | total protein half-life in vivo [11] [h] | total protein half-life in vivo [12] [h]
MPKKNEAPASFEKALSELEQIVTRLESGDLPLEEALNEFERGVQLARQGQAKLQQAEQRVQILLSDNEDASLTPFTPDNE [P0A8G9] | 7.56 | 5.9 | 6.62 | 6.16 ± 0.35 | 14.4 | 5.09 ± 0.59 | 4.86 ± 0.049 | 14.2 ± 1.7 | – | – | – | –
MPKLGMQSIRRRQLIDATLEAINEVGMHDATIAQIARRAGVSTGIISHYFRDKNGLLEATMRDITSQLRDAVLNRLHALPQGSAEQRLQAIVGGNFDETQVSSAAMKAWLAFWASSMHQPMLYRLQQVSSRRLLSNLVSEFRRELPREQAQEAGYGLAALIDGLWLRAALSGKPLDKTRANSLTRHFITQHLPTD | 4.85 ± 0.33 | 4.25 | – | – | – | 4.99 | – | – | 4.46 | – | – | –
MPKLILASTSPWRRALLEKLQISFECAAPEVDETPRSDESPRQLVLRLAQEKAQSLASRYPDHLIIGSDQVCVLDGEITGKPLTEENARLQLRKASGNIVTFYTGLALFNSANGHLQTEVEPFDVHFRHLSEAEIDNYVRKEHPLHCAGSFKSEGFGITLFERLEGRDPNTLVGLPLIALCQMLRREGKNPLMG [P0A729] | 4.57 ± 0.6 | – | 4.118 ± 0.0072 | 5.174 ± 0.02 | 8.34 ± 0.7 | 3.77 ± 0.35 | 5.45 ± 0.28 | 12.1 ± 0.56 | – | 3.68 ± 0.16 | 3.14 ± 0.5 | 6.24 ± 0.41
MPKLRLIGLTLLALSATAVSHAEETRYVSDELNTWVRSGPGDHYRLVGTVNAGEEVTLLQTDANTNYAQVKDSSGRTAWIPLKQLSTEPSLRSRVPDLENQVKTLTDKLTNIDNTWNQRTAEMQQKVAQSDSVINGLKEENQKLKNELIVAQKKVDAASVQLDDKQRTIIMQWFMYGGGVLGLGLLLGLVLPHLIPSRKRKDRWMN [P0ADT8] | – | – | 6.56 ± 0.2 | 5.84 ± 0.24 | 11.1 ± 0.11 | 5.83 ± 0.15 | 5.51 ± 0.2 | 12.5 ± 0.39 | 6.43 ± 0.12 | 5.94 ± 0.49 | 3.03 ± 0.052 | 11.8 ± 0.99
MPKPGILKSKSMFCVIYRSSKRDQTYLYVEKKDDFSRVPEELMKGFGQPQLAMILPLDGRKKLVNADIEKVKQALTEQGYYLQLPPPPEDLLKQHLSVMGQKTDDTNK [P0AB43] | 4.94 ± 0.22 | 4.28 ± 0.62 | 3.56 ± 0.33 | 4.59 ± 0.29 | 8.2 ± 0.32 | 3.5 | 4.48 ± 0.068 | 8.702 ± 0.013 | 4.78 ± 0.62 | 3.88 ± 0.55 | 2.71 ± 0.15 | 5.72 ± 0.24
MPKSVIIPAGSSAPLAPFVPGTLADGVVYVSGTLAFDQHNNVLFADDPKAQTRHVLETIRKVIETAGGTMADVTFNSIFITDWKNYAAINEIYAEFFPGDKPARFCIQCGLVKPDALVEIATIAHIAK [P0AFQ5] | – | – | – | – | – | – | – | – | – | 3.86 | – | –
MPLIIVVAGIALLLLLTIKIKLNTFVSLIIVSIAVAIASGMDLSKVVTSVESGLGGTLGHIGLIFGFGVMLGRLLADAGGAQRIALTMLNYFGKNKLDWAVVCSAFIVGIALFFEVGLILLVPILFAIAREAKISPMFMCVPMLSGLLVAHGFLPPHPGPTVIAREYGADVGLVLIYGIIVGIPTFILCGPVLNKFCQRIIPDAFKKEGNIASLGATRRFSESEMPGFGISFLTAMLPVILMAVVTIIQMTHAKSAADSGLFYNVILFLGNSTIAMLISLLFAIYTMGLGRGKTIPDLMDSCGKAIAGIAGLLLIIGGGGAFKQVLIDSGVGQYISTLVSGMDINPILMAWGVAAFLRICLGSATVAAISTAGLVIPLLAVHPNTNLALITLATGAGSCICSHVNDASFWMIKDFFGLTTKETLLSWTLMSTLLSISGLIFILLASLVL | – | – | – | – | – | – | – | – | – | 6.77 | 3.22 | –
MPLLDIRNLTIEFKTGDEWVKAVDRVSMTLTEGEIRGLVGESGSGKSLIAKAICGVNKDNWRVTADRMRFDDIDLLRLSARERRKLVGHNVSMIFQEPQSCLDPSERVGRQLMQNIPAWTYKGRWWQRFGWRKRRAIELLHRVGIKDHKDAMRSFPYELTEGECQKVMIAIALANQPRLLIADEPTNSMEPTTQAQIFRLLTRLNQNSNTTILLISHDLQMLSQWADKINVLYCGQTVETAPSKELVTMPHHPYTQALIRAIPDFGSAMPHKSRLNTLPGAIPLLEQLPIGCRLGPRCPYAQRECIVTPRLTGAKNHLYACHFPLNMEKE [P0AAH4] | 6.47 ± 1 | 5.65 ± 0.24 | 5.68 ± 0.59 | 5.52 ± 0.2 | 11.19 ± 0.067 | 5.58 ± 0.23 | 5.43 ± 0.13 | 10.9 ± 0.29 | 5.96 ± 0.44 | 5.11 ± 0.24 | 2.86 ± 0.12 | 10.5 ± 0.24

Source: the supplement of paper PMC11246515
